Measurements from patent publication US20220025003A1, “REAGENTS AND METHODS FOR CONTROLLING PROTEIN FUNCTION AND INTERACTION” (University of Washington, priority 2018, published 2022).
“And” between values parts separate entries of the source, which are not always exact repeats. Equal values may be shown once.

Assays:
NS3a in NIH3T3 cells = test: Confocal microscopy for colocalization analysis (fixed cells); format: cell-based; conditions: 5 μM drug, 15 min
NS3a/danoprevir complex = molecular target: T1, NS3a/danoprevir complex (Hepatitis C virus genotype 1a, UniProt P27958, C1073S/C1078L/C1185S/I1043Q/I1044E/I1098T/L1039E/L1040E/L1047Q/L1179I/N1200S/P1112Q/Q1106K/T1100M/T1173A); test: Yeast surface display binding and titration; set-up: key to relative binding: +: Relative binding of different NS3a/inhibitor complexes is given for conditions where binding was too weak to achieve full titration curves on yeast, indicating binding in the low-to-mid micromolar-range, or weaker.; ++: Relative binding of different NS3a/inhibitor complexes is given for conditions where binding was too weak to achieve full titration curves on yeast, indicating binding in the low-to-mid micromolar-range, or weaker.; +++: Relative binding of different NS3a/inhibitor complexes is given for conditions where binding was too weak to achieve full titration curves on yeast, indicating binding in the low-to-mid micromolar-range, or weaker; conditions: for Fold drug specificity: grazoprevir/NS3a over danoprevir/NS3a; for relative binding / Kd: yeast-displayed design, NS3a/danoprevir complex; for Kd: apparent, read-out: KD (nM) ± standard deviation; for binding to NS3a/danoprevir complex: yeast surface display
T1 construct: made in house; host or cells: E. coli BL21 (DE3), pDW363 with BirA
Excerpt: (§1) ; these sorts are denoted as “avid” below. […] See FIG. 30a for yeast gating strategies.
(§2) […]. Curves were fit using Graphpad Prism 5 to a one-site specific binding model with Hill coefficient.

NS3a/asunaprevir complex = molecular target: T2, NS3a/asunaprevir complex (Hepatitis C virus genotype 1a, UniProt P27958, C1073S/C1078L/C1185S/I1043Q/I1044E/I1098T/L1039E/L1040E/L1047Q/L1179I/N1200S/P1112Q/Q1106K/T1100M/T1173A); test: Yeast surface display binding and titration; set-up: key to relative binding: +: Relative binding of different NS3a/inhibitor complexes is given for conditions where binding was too weak to achieve full titration curves on yeast, indicating binding in the low-to-mid micromolar-range, or weaker.; ++: Relative binding of different NS3a/inhibitor complexes is given for conditions where binding was too weak to achieve full titration curves on yeast, indicating binding in the low-to-mid micromolar-range, or weaker.; +++: Relative binding of different NS3a/inhibitor complexes is given for conditions where binding was too weak to achieve full titration curves on yeast, indicating binding in the low-to-mid micromolar-range, or weaker; conditions: for relative binding / Kd: yeast-displayed design, NS3a/asunaprevir complex; for Kd: apparent, read-out: KD (nM) ± standard deviation
T2 construct: made in house; host or cells: E. coli BL21 (DE3), pDW363 with BirA
Excerpt: as §1, §2

NS3a/grazoprevir complex = molecular target: T3, NS3a/grazoprevir complex (Hepatitis C virus genotype 1a, UniProt P27958, C1073S/C1078L/C1185S/I1043Q/I1044E/I1098T/L1039E/L1040E/L1047Q/L1179I/N1200S/P1112Q/Q1106K/T1100M/T1173A); test: Yeast surface display binding and titration; set-up: key to relative binding: +: Relative binding of different NS3a/inhibitor complexes is given for conditions where binding was too weak to achieve full titration curves on yeast, indicating binding in the low-to-mid micromolar-range, or weaker.; ++: Relative binding of different NS3a/inhibitor complexes is given for conditions where binding was too weak to achieve full titration curves on yeast, indicating binding in the low-to-mid micromolar-range, or weaker.; +++: Relative binding of different NS3a/inhibitor complexes is given for conditions where binding was too weak to achieve full titration curves on yeast, indicating binding in the low-to-mid micromolar-range, or weaker; conditions: for relative binding / Kd: yeast-displayed design, NS3a/grazoprevir complex; for Kd: apparent, read-out: KD (nM) ± standard deviation; for Fold drug specificity: danoprevir/NS3a over grazoprevir/NS3a
T3 construct: made in house; host or cells: E. coli BL21 (DE3), pDW363 with BirA
Excerpt: as §1, §2

apo NS3a = molecular target: T4, apo NS3a (Hepatitis C virus genotype 1a, UniProt P27958, C1073S/C1078L/C1185S/I1043Q/I1044E/I1098T/L1039E/L1040E/L1047Q/L1179I/N1200S/P1112Q/Q1106K/T1100M/T1173A); test: Yeast surface display binding
T4 construct: made in house; host or cells: E. coli BL21 (DE3), pDW363 with BirA
Excerpt: as §1, §2

[1] = 100 μM free drug unable to disrupt DNCR2/danoprevir/NS3a complex on yeast
[2] = system: PI3K-Akt signaling in COS-7 cells; test: AKT Western blots; format: cell-based; conditions: DNCR2 fused to inter-SH2 domain of p85, danoprevir
Description: COS-7 cells (ATCC), were plated in 24-well plates at 2×10^5 cells/mL (0.5 mL volume). […] One day after transfection, cells were washed once with DPBS, and media was replaced with serum-free DMEM. After serum-starving for 22 hours, cells were exposed to a 15-min drug treatment using 12, 3-fold dilutions of danoprevir from 5 μM to 0 μM, in triplicate. After drug treatment, cells were washed once in DPBS, then lysed in 50 μL modified RIPA buffer (50 mM Tris-HCl, pH 7.8, 1% v/v IGEPAL CA-630, 150 mM NaCl, 1 mM EDTA, 1× Pierce Protease Inhibitor Tablet) for 30 minutes on ice. Cell debris was cleared by centrifugation at […] for 10 min at 4° C. Lysate was mixed with protein loading dye and denatured at 95° C. for 7 minutes then run on an SDS-PAGE gel (Criterion, Bio-Rad) and transferred to nitrocellulose. Blocking and primary antibody incubations were done in a 1:1 mix of TBS plus 0.1% v/v Tween-20 (TBST) and blocking buffer (Odyssey). Primary antibodies used were pSER473 AKT (1:2000, Cell Signaling Technologies #4060), and pan-AKT (1:2000, Cell Signaling Technologies #2920). […]

[3] = grazoprevir/NS3a over asunaprevir/NS3a
[4] = danoprevir/NS3a over asunaprevir/NS3a

Row | Molecule | Fold drug specificity (NS3a/danoprevir complex) | relative binding (NS3a/danoprevir complex) | Fold drug specificity (NS3a/asunaprevir complex; [3]) | relative binding (NS3a/asunaprevir complex) | specificity for binding grazoprevir/NS3a over NS3a with danoprevir or asunaprevir, or apo NS3a (NS3a/grazoprevir complex; yeast surface display) | relative binding (NS3a/grazoprevir complex) | Kd (NS3a/danoprevir complex) [nM] | binding to NS3a/danoprevir complex (NS3a/danoprevir complex) | Kd (NS3a/asunaprevir complex) [nM] | Kd (NS3a/grazoprevir complex) | binding to apo NS3a (apo NS3a) | Fold drug specificity (NS3a/asunaprevir complex; [4]) | Fold drug specificity (NS3a/grazoprevir complex) | other results
1 | ANR—BFP-CAAX: plasma membrane-targeted ANR-BFP fusion (protein) MGELDELVYLLDGPGYDPIHSDGSGTGSGTGSGTGTTSGTGTGGSTGGELDELVYLLDGPGYDPIHSDGSGTGSGTGSGTGTTSGTGTGGSTGEQKLISEEDLGSGSSELIKENMHMKLYMEGTVDNHHFKCTSEGEGKPYEGTQTMRIKVVEGGPLPFAFDILATSFLYGSKTFINHTQGIPDFFKQSFPEGFTWERVTTYEDGGVLTATQDTSLQDGCLIYNVKIRGVNFTSNGPVMQKKTLGWEAFTETLYPADGGLEGRNDMALKLVGGSHLIANIKTTYRSKKPAKNLKMPGVYYVDYRLERIKEANNETYVEQHEVAVARYCDLPSKLGHKLNRKHKEKMSKDGKKKKKKSKTKCVIM | – | – | – | – | – | – | – | – | – | – | – | – | – | Colocalization of NS3a-mCherry with ANR-BFP-CAAX or NLS-DNCR2-EGFP (NS3a in NIH3T3 cells): pre-localized NS3a-mCherry™ to the plasma membrane
2 | G3: computational design on DHR18 scaffold binding grazoprevir/NS3a complex, SEQ ID NO: 12 (protein) DIEKLCKKAEEEAKEAQEKADELRQRHPDSQAAEDAEDLANEAEAAVLAACSLAQEHPNADIAKLCIKAASEAAEAASKAAELAQRHPDSQAARDAIKLASQAARAVILAIMLAAENPNADIAKLCIKAASEAAEAASKAAELAQRHPDSQAARDAIKLASQAAEAVERAIWLAAENPNADIAKKCIKAASEAAEEASKAAEEAQRHPDSQKARDEIKEASQKAEEVKERCKS | high | no binding | modest | + | high specificity | ++ | – | – | – | – | – | – | – | binding to NS3a/grazoprevir complex (NS3a/grazoprevir complex; yeast surface display): modest, grazoprevir-dependent binding
3 | GNCR1: grazoprevir/NS3a complex reader 1, 4 mutations from G3, SEQ ID NO: 11 (protein) DIEKLCKKAEEEAKEAQEKADELRQRHPDSQAAEDAEDLANLAVAAVLTACLLAQEHPNADIAKLCIKAASEAAEAASKAAELAQRHPDSQAARDAIKLASQAARAVILAIMLAAENPNADIAKLCIKAASEAAEAASKAAELAQRHPDSQAARDAIKLASQAAEAVERAIWLAAENPNADIAKKCIKAASEAAEEASKAAEEAQRHPDSQKARDEIKEASQKAEEVKERCKS | >71 fold | – | >71 fold | – | high specificity | – | > 10000 | little-to-no affinity | > 10000 | 140 nM and < 200 nM | little-to-no affinity | – | – | binding to asunaprevir-bound NS3a (NS3a/asunaprevir complex; yeast surface display): little-to-no affinity
4 | D5: computational design on DHR79 scaffold binding danoprevir/NS3a complex, SEQ ID NO: 10 (protein) SSDEEEARELIERAKEAAERAQEAAERTGDPRVRELARELKRLAQEAAEEVKRDPSSSDVNEALKLIVEAIEAAVDALEAAERTGDPEVRELARELVRLAVEAAEEVQRNPSSSDVNEALLTIVIAIEAAVNALEAAERTGDPEVRELARELVRLAVEAAEEVQRNPSSREVNIALWKIVLAIQEAVESLREAEESGDPEKREKARERVREAVERAEEVQRDPSGWLNH | – | ++ | – | + | – | +++ | – | modest, drug-dependent binding | – | – | – | modest | none | –
5 | DNCR2: danoprevir/NS3a complex reader, final variant with 14 mutations from D5, SEQ ID NO: 8 (protein) SSDEEEARELIERAKEAAERAQEAAERTGDPRVRELARELKRLAQEAAEEVKRDPSSSDVNEALKLIVEAIEAAVDALEAAERTGDPEVRELARELVRLAVEAAEEVQRNPSSSDVNEALHSIVYAIEAAIFALEAAERTGDPEVRELARELVRLAVEAAEEVQRNPSSRNVEHALMRIVLAIYLAEENLREAEESGDPEKREKARERVREAVERAEEVQRDPSGWLNH | – | – | – | – | – | – | 0.036 ± 0.0002 | – | 770 ± 50 | 2000 ± 100 nM | no detectable binding | 21,000 fold | 56,000 fold | specificity over NS3a bound to the drugs grazoprevir or asunaprevir (NS3a/danoprevir complex): > 20,000 fold; binding to danoprevir alone [1]: does not appear to bind substantially to danoprevir alone; PI3K-Akt signaling activation [2]: capable of activating PI3K-Akt signaling
